Tests used:
[1] = Irritation at the site of injection and clinical safety in healthy volunteers (Example 8); assay type: in vivo, human (healthy male volunteers); conditions: s.c.
Experimental: Bioavailability of erythropoietin after subcutaneous administration of erythropoietin in a hydroxypropyl-β-cyclodextrin formulation in comparison with formulations using human serum albumin in healthy volunteers was assessed in the following study.
Six healthy male volunteers with ages ranging between 30 and 40 (median 32) years, body weights between 69 and 80 (median 75) kg were administered subcutaneously in the upper arm 1 ml of an EPO solution (4000 I.U./ml) according to a randomized cross-over design. A four-week interval occured between the two tests. The two formulations of EPO were
Irritation at the site of injection was scored before and 2, 4, and 24 hours after each administration. No oedema, erythema, itching or pain was reported in any of the volunteers at any time during the whole study. Both formulations are therefore equally well tolerated.

[2] = -80° C.; cited from earlier work

**Q.** For “EPO: circulating glycoprotein hormone which induces an increase in red cell mass”, which “blood pressure or heart rate” value [1] is on record?
**A.** Its value is “Nor did subcutaneous administration of EPO influence blood pressure or heart rate”.

**Q.** And the “haematology and serum biochemistry” value [1]?
**A.** The value was “No clinically important changes”.

**Q.** What about the “decrease in activity in aqueous solution” value [2] of the same substance?
**A.** Its value is “substantial decrease in activity”.

Source: patent US5376632A, “Cyclodextrin based erythropoietin formulation” (priority 1992, dated 1994)
